Measurements from patent US20230257458A1.

Tests used:
IL-11 protein = IL-11 protein (UniProt P20809); assay: ELISA, purchased IL-11 antibody (Abcam, ab130083) on IL-11, positive control
IL-11-Fc protein = IL-11-Fc protein (UniProt P20809); assay: competition ELISA: IL-11R-His coated, IL-11-Fc co-incubated with a concentration gradient of the antibody, detection with HRP goat anti-IgG-Fc; blocked partner IL-11R-His
Sequence of IL-11-Fc protein (P20809 22-199 limits assumed): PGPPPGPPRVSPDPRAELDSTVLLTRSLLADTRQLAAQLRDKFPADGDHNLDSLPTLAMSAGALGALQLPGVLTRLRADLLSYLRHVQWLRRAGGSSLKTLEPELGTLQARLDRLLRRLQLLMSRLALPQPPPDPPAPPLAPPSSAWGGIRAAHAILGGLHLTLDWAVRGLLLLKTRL

Sequence of IL-11 protein (P20809 22-199 limits assumed): as above

OD(450 nm) value (IL-11 protein): 3.62
IC50 (read off the curve) (IL-11-Fc protein): 1 µg/mL
Substance: 6D9A1 (Abcam, ab130083) (antibody)
